{"source": "paper PMC12680535", "parents": {"B1": {"name": "NSUN2 (NOP2/Sun RNA methyltransferase family member 2), wild type, in PANC-1 cells [human (endogenous in PANC-1)] / STUB1 (STIP1 homology and U-box containing protein 1), in PANC-1 cells [human (endogenous in PANC-1)] (parent)", "chain 1": "MKGKEEKEGGARLGAGGGSPEKSPSAQELKEQGNRLFVGRKYPEAAACYGRAITRNPLVAVYYTNRALCYLKMQQHEQALADCRRALELDGQSVKAHFFLGQCQLEMESYDEAIANLQRAYSLAKEQRLNFGDDIPSALRIAKKKRWNSIEERRIHQESELHSYLSRLIAAERERELEECQRNHEGDEDDSHVRAQQACIEAKHDKYMADMDELFSQVDEKRKKRDIPDYLCGKISFELMREPCITPSGITYDRKDIEEHLQRVGHFDPVTRSPLTQEQLIPNLAMKEVIDAFISENGWVEDY", "chain 2": "MGRRSRGRRLQQQQRPEDAEDGAEGGGKRGEAGWEGGYPEIVKENKLFEHYYQELKIVPEGEWGQFMDALREPLPATLRITGYKSHAKEILHCLKNKYFKELEDLEVDGQKVEVPQPLSWYPEELAWHTNLSRKILRKSPHLEKFHQFLVSETESGNISRQEAVSMIPPLLLNVRPHHKILDMCAAPGSKTTQLIEMLHADMNVPFPEGFVIANDVDNKRCYLLVHQAKRLSSPCIMVVNHDASSIPRLQIDVDGRKEILFYDRILCDVPCSGDGTMRKNIDVWKKWTTLNSLQLHGLQLRIATRGAEQLAEGGRMVYSTCSLNPIEDEAVIASLLEKSEGALELADVSNELPGLKWMPGITQWKVMTKDGQWFTDWDAVPHSRHTQIRPTMFPPKDPEKLQAMHLERCLRILPHHQNTGGFFVAVLVKKSSMPWNKRQPKLQGKSAETRESTQLSPADLTEGKPTDPSKLESPSFTGTGDTEIAHATEDLENNGSKKDGVCGPPPSKKMKLFGFKEDPFVFIPEDDPLFPPIEKFYALDPSFPRMNLLTRTTEGKKRQLYMVSKELRNVLLNNSEKMKVINTGIKVWCRNNSGEEFDCAFRLAQEGIYTLYPFINSRIITVSMEDVKILLTQENPFFRKLSSETYSQAKDLAKGSIVLKYEPDSANPDALQCPIVLCGWRGKASIRTFVPKNERLHYLRMMGLEVLGEKKKEGVILTNESAASTGQPDNDVTEGQRAGEPNSPDAEEANSPDVTAGCDPAGVHPPR"}}, "data": [{"variants_of": "B1", "experiment": "Co-IP (IP: anti-Flag) immunoblot, band quantification", "details": "with STUB1 (STIP1 homology and U-box containing protein 1), MG132 +, n = 3, parent: 1, read off a plot", "values": [{"variant": "chain 2 K692R", "response (relative intensity)": 2}, {"variant": "chain 2 K692E", "response (relative intensity)": 0.3}]}]}
